Key:
[1] = target: T1, chymase (Homo sapiens, UniProt P23946 P23946:22-247); experiment: inhibition; angiotensin I; recombinant 0.108; conditions: tags: human skin mast cell, Calbiochem
T1 sequence: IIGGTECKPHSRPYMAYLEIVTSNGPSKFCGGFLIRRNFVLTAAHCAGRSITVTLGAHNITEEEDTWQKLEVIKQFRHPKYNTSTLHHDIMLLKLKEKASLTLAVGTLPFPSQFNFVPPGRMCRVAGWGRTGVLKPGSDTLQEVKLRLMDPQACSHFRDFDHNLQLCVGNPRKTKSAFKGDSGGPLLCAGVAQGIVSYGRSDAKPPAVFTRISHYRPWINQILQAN
Procedure: (§1) The total volume of solution for an enzyme reaction in the assay was set to 50 μL, and the reaction was performed in solution C buffer. First, 0.3-0.75 ng of chymase (recombinant, (manufactured by SIGMA) or native (manufactured by Calbiochem)) was diluted with solution C to give 5 μL thereof. Here, the recombinant is chymase expressed by yeast, and the native is chymase purified from human skin mast cell. The nucleic acid was serially diluted with solution C at a concentration of 0.0027-2 μM to give 25 μL thereof. The chymase solution (5 μL) and the nucleic acid solution (25 μL) were mixed, and the mixture was incubated at 37° C. for 5 min. […] The whole mixture was centrifuged at 4° C., 14000 rpm for 10 min, and the supernatant (30 μL) was used for the next fluorescence induction reaction.
(§2) The above-mentioned supernatant (30 μL) was added to a 96 well plate (black, manufactured by Costar), a solution (15 μL) of 2% o-phthalaldehyde (manufactured by SIGMA) in methanol and 0.3M NaOH solution (170 μL) were added to each well, and the mixture was incubated at room temperature for 10 min. […] The plate was set on a microplate reader SpectraMax190 (manufactured by Molecular device) and the fluorescence intensity was measured at an excitation wavelength of 355 nm and a fluorescence wavelength of 460 nm.

[2] = target: T2, chymase (recombinant) (UniProt P23946 P23946:22-247); experiment: inhibition; SPR not determined; conditions: tags: SIGMA, expressed in yeast
T2 sequence: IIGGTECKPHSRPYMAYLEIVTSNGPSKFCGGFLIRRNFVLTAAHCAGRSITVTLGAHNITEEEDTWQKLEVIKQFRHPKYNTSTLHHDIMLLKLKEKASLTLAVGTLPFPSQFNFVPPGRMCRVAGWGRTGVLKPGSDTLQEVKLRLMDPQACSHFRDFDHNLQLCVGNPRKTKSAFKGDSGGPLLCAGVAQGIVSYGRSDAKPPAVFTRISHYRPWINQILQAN
Procedure: (§3) Here, Suc is a protecting succinyl group, and MCA is a 4-methylcoumaryl-7-amide group; upon cleavage of the C-terminal side of phenylalanine, AMC (7-amino-4-methyl-coumarine) is released. By detecting the fluorescence of this AMC, the enzyme activity of chymase can be determined. The assay was performed using a 96-well plate (F16 Black Maxisorp Fluoronunc, manufactured by Nunc), with a reaction mixture volume of 100 μL, in solution C as a buffer solution. First, each nucleic acid was serially diluted to 0.0027-2 μM concentrations in solution C to obtain 50 μL solutions. After 10 μL of the 1 mM substrate prepared in solution C was added thereto, the plate was set to the microplate reader SpectraMax190 (manufactured by Molecular Devices Corporation), and incubated at 37° C. for 5 minutes. […] The plate containing the reaction mixture was set to the microplate reader SpectraMax190 (manufactured by Molecular Devices Corporation), and examined for time-dependent changes in the fluorescence intensity at 37° C. for 5 minutes (or 30 minutes) (excitation wavelength 380 nm, detection wavelength 460 nm). A linear approximation of the increase in the fluorescence of the AMC released from the substrate by chymase activity was generated, and its slope was taken as the initial velocity ($Vmax$). […]
The inhibitory activity on chymase was measured in the same manner as in Example 3.

[3] = target: T1, chymase; experiment: SPR; stronger than 40N; solution A; conditions: tags: human skin mast cell, Calbiochem
Procedure: (§4) The binding activities against chymase of the nucleic acids shown by SEQ ID NO: 4-20 and 22-34 were determined by the surface plasmon resonance method using Biacore T100 (manufactured by GE Healthcare). The sensor chip used was the SA chip, which had streptavidin immobilized thereon. Bound thereto was about 1500 RU of a 16-nucleotide Poly dT with biotin bound to the 5' end thereof. […] 20 μL of chymase for analyte, prepared at 0.2 μM, was injected. Solution A was used as a running buffer.

[4] = target: T1, chymase; experiment: inhibition; angiotensin I; recombinant 0.055; conditions: tags: human skin mast cell, Calbiochem
Procedure: as §1, §2

[5] = target: T1, chymase; experiment: inhibition; angiotensin I; recombinant 0.397; conditions: tags: human skin mast cell, Calbiochem
Procedure: as §1, §2

[6] = target: T1, chymase; experiment: inhibition; angiotensin I; recombinant 0.354; conditions: tags: human skin mast cell, Calbiochem
Procedure: as §1, §2

[7] = target: T2, chymase (recombinant); experiment: SPR; stronger than 30N; solution C; chymase preparation for SPR not specified; conditions: tags: SIGMA, expressed in yeast
Procedure: as §4
The binding activities against chymase of the nucleic acids shown by SEQ ID NO: 38-48 were evaluated by the surface plasmon resonance method. In the evaluations for SEQ ID NO: 38-48, measurements were taken in the same manner as Example 1. Solution C was used as a running buffer.

[8] = target: T2, chymase (recombinant); experiment: inhibition; SPR not determined; conditions: tags: SIGMA, expressed in yeast; remark: listed apart in the source
Procedure: as §3, with “minutes. Separately, 0.05 μg (or 0.005 μg) of chymase (recombinant, manufactured by SIGMA) was diluted in solution C to obtain a 40 μL chymase solution, and incubated at 37° C. for 5 minutes.” for “minutes.”, “[…]. For control, samples were treated and analyzed in the same manner in two cases: use of a 30N or 40N (a nucleotide of 30 or 40 consecutive bases represented by N; N is A, G, C or T) nucleic acid pool (negative control), and use of chymostatin, a known chymotrypsin-like serine protease inhibitor (positive control). Taking the initial reaction velocity without the nucleic acid and inhibitor (V_0) as a 100% enzyme activity, the inhibitory rate of each test substance was calculated using the following equation:” for “($Vmax$).”
(§5) The chymase inhibitory activity was measured in the same manner as in Example 3.

[9] = target: T2, chymase (recombinant); experiment: inhibition; SPR ++; conditions: tags: SIGMA, expressed in yeast
Procedure: Here, Suc is a protecting succinyl group, and MCA is a 4-methylcoumaryl-7-amide group; upon cleavage of the C-terminal side of phenylalanine, AMC (7-amino-4-methyl-coumarine) is released. By detecting the fluorescence of this AMC, the enzyme activity of chymase can be determined. The assay was performed using a 96-well plate (F16 Black Maxisorp Fluoronunc, manufactured by Nunc), with a reaction mixture volume of 100 μL, in solution C as a buffer solution. First, each nucleic acid was serially diluted to 0.0027-2 μM concentrations in solution C to obtain 50 μL solutions. After 10 μL of the 1 mM substrate prepared in solution C was added thereto, the plate was set to the microplate reader SpectraMax190 (manufactured by Molecular Devices Corporation), and incubated at 37° C. for 5 minutes. Separately, 0.05 μg (or 0.005 μg) of chymase (recombinant, manufactured by SIGMA) was diluted in solution C to obtain a 40 μL chymase solution, and incubated at 37° C. for 5 minutes. The chymase solution was added to the mixture of the nucleic acid and substrate to initiate an enzyme reaction. The final chymase concentration in the reaction mixture was 16.7 nM (or 1.67 nM), the final substrate concentration being 100 μM. The plate containing the reaction mixture was set to the microplate reader SpectraMax190 (manufactured by Molecular Devices Corporation), and examined for time-dependent changes in the fluorescence intensity at 37° C. for 5 minutes (or 30 minutes) (excitation wavelength 380 nm, detection wavelength 460 nm). A linear approximation of the increase in the fluorescence of the AMC released from the substrate by chymase activity was generated, and its slope was taken as the initial velocity […]. For control, samples were treated and analyzed in the same manner in two cases: use of a 30N or 40N (a nucleotide of 30 or 40 consecutive bases represented by N; N is A, G, C or T) nucleic acid pool (negative control), and use of chymostatin, a known chymotrypsin-like serine protease inhibitor (positive control). Taking the initial reaction velocity without the nucleic acid and inhibitor (V_0) as a 100% enzyme activity, the inhibitory rate of each test substance was calculated using the following equation: […]
as §5

[10] = target: T3, chymase (native, human skin mast cell) (Homo sapiens, UniProt P23946 P23946:22-247); experiment: inhibition; angiotensin I substrate; recombinant 0.037 uM; conditions: tags: Calbiochem
T3 sequence: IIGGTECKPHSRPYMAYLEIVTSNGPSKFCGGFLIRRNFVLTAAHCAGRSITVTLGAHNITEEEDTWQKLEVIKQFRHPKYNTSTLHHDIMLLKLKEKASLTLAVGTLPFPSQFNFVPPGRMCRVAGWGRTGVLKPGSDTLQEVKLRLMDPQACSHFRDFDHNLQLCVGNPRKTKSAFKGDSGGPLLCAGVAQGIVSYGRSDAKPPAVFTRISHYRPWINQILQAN
Procedure: as §1, §2

[11] = target: T1, chymase; experiment: inhibition; angiotensin I; recombinant 0.207; conditions: tags: human skin mast cell, Calbiochem
Procedure: as §1, §2

## GGGUUAGAUAGAGUUAAAAACCC (ssRNA, 2'-F U and C; PS 5-6) [56(18)]
[1]
  IC50: 174 nM

## GGGUUAGAUAGAGUUAAAAACCC (ssRNA, 2'-F pyrimidines; 5' 40 kDa branched PEG; 3' idT) [56(17)]
[2]
  IC50: 58 nM

B1: SEQ 10 (ssRNA)
RNA: GGGACGGUAGGAAUUCCGCCGCCUAAAAAACGACGAUAUUACAGAAACGUCAAAUACAUAGAAGAGCGGCCGC
modifications: 2'-F U and C
[3]
  binding result: binds

## GGGUUAGAUAGAGUUAAAAACCC (ssRNA, 2'-F U and C; PS 6-7) [56(19)]
[4]
  IC50: 130 nM

## UAACUAUGGUUAGAUAGAGUUAAAAACCAUAGAAGA (ssRNA, 2'-F U and C) [SEQ 54]
[5]
  IC50: 614 nM

## CUAUGGUUAGAUAGAGUUAAAAACCAUAG (ssRNA, 2'-F U and C) [SEQ 55]
[6]
  IC50: 606 nM

B2: SEQ 39 (ssRNA)
RNA: GGGAGCAGGAGAGAGGUCAGAUGGUUACGGAUAGAGUUAAGGUAACGGUACGGCCUAUGCGUGCUAGUGUGA
modifications: 2'-F pyrimidines
[7]
  binding result: binds

B3: 56(27) (ssRNA)
RNA: GGGUUAGAUAGAGUUAAAAACCC
modifications: PEG-G(M)G(M)G(M)U(F)U(F)AG(M)A(M)U(F)A(M)GAG(M)U(F)U(F)A(M)A(M)A(M)A(M)A(M)C(F)C(F)C(F)-idT (M=2'-OMe, F=2'-F)
[8]
  IC50: 84 nM

B4: 72(2) (mixed)
mixed: GGGTTAGAUAGAGTUAAAAACCC
modifications: idT-G(M)G(M)G(M)ttAsG(M)aU(F)A(M)GAG(M)tU(F)A(M)A(M)A(M)A(M)A(M)ccc-idT (lower case DNA, s=PS)
[9]
  IC50: 14 nM
[10]
  IC50: 76 nM

## GGGUUAGAUAGAGUUAAAAACCC (ssRNA, 2'-F U and C; 5' and 3' idT) [56(1)]
[11]
  IC50: 404 nM

From patent US9012420B2, “Aptamer for chymase, and use thereof” (Ribomic Inc., priority 2009, dated 2015)
